Measured values taken from the RNAGym collection of RNA variant scans (doi:10.7554/elife.80360).

B1: HDV Ribozyme (parent)
chain: GGCCGGCAUGGUCCCAGCCUCCUCGCUGGCGCCGGCUGGGCAACAUUCCGAGGGGACCGUCCCCUCGGUAAUGGCGAAUGGGACCCA

Variants of: B1
Assay: self-cleavage, relative activity (ratio to wild type); higher = more cleavage; co-transcriptional

Variant	self-cleavage
U65G G68C	0.673
U65G G68U	0.491
C64A C84U	0.694
C64U U72A	0.567
C62G G81A	0.299
U65C C66U	1.04
C62U A87G	1.05
C62U A87C	1.11
C61A G68U	0.623
C61U G68A	0.727
C61A G82C	0.228
C62G A78C	0
U60G G76U	0.969
C64G G76A	0.862
C64G G74A	0.17
C66G C85U	0.933
C66G C85A	1.02
C63A A70C	0.883
C63A A70G	0.767
C63A A70U	0.812
C61U C66G	0.529
C63U A83G	0.653
C63U A83C	0.502
C62A C75U	0.108

Variant	self-cleavage
U60C G74C	0.217
U60G G67U	1.07
U60G G81U	0.123
C63A C86U	0.784
C63A C86G	1.02
C61U C85U	0.917
C63G A78U	0.185
C64A G80C	0.125
C64A G80U	0.294
U65G A77G	0.831
C63G A71C	0.782
C61A C64U	0.997
C64U C85U	1.08
C64U C85G	0.851
C64U G67C	0.906
C61G A83G	0.567
U65G A87U	1.12
U65G G73A	0.363
C66A C84G	0.692
C61A A83C	0.342
C63U A77U	0.698
C63U A77G	0.882
C66A G76A	1.13
C66G G68U	0.812

Variant	self-cleavage
C64G C66U	0.955
C64G C66G	0.742
C64G C66A	0.888
C61A U72C	0.686
C61A U72G	0.554
U65G U72G	0.748
C61U U79G	1.15
C61G C62A	0.958
C61G C62U	0.815
C62A A77C	0.623
U65G A83U	0.571
C63A C64A	0.665
U60G C66A	0.831
U65G C86U	0.966
C64U U69A	1.02
C64G G81C	0.208
C62U G73A	0.808
C62U G73U	0.472
C62A U65A	0.332
C62A U65C	0.969
C64G A78C	0.269
C64G A78G	0.527
C63A G81A	0.446
C66G A77C	0.262

Variant	self-cleavage
U60C G81U	0.424
C61U A77G	1.12
C62A A87C	0.946
C62A A87G	0.867
C64A C66U	0.567
C63A C75G	0.201
C64G A87C	0.778
C64G A87U	0.786
C64G A87G	0.853
C62G G80C	0.0791
C63G G80A	0.366
U60C G80C	0.125
U65G G76U	0.966
C63A G82C	0.122
C63U A70C	1.07
C63G U79G	0.692
C64U A78U	0.297
C63A G80U	0.2
C64G G73C	0.324
C64G G73U	0.172
U60C C85A	0.712
U60C C85U	0.989
U65C C86U	0.516
C61G A77U	0.394

Variant	self-cleavage
C63U C84G	0.63
C63U C84U	0.726
C63U A71U	1.02
C63U A71G	1.03
C61G G68C	0.665
C64G C84U	0.831
C64G C84A	0.718
U65G G80U	0.261
U65A U72C	0.511
C61A C85A	1.09
C61A C85U	1.05
C64A G76C	0.95
C64A G76U	0.858
C64A G76A	0.997
C61A G74C	0.315
U65A G68U	0.87
C63U	1
C63G	0.764
C63A	0.973
U65C A71G	0.935
U65A A77U	0.72
C64A U79G	0.684
C64A U79A	0.796
U60C G73C	0.465

Variant	self-cleavage
U60C G73U	0.352
U65A G81C	0.502
U65A G81U	0.353
C62G U79C	0.529
C62A A71U	0.892
C62A A70C	0.886
C62A A70G	0.682
C62A G68A	0.842
C62A G68U	0.939
C62G A77U	0.388
C61A C62G	0.892
C62U G67C	0.923
C62U G67U	1.02
C61U C64G	0.308
C66G C75U	0.157
U65C G74C	0.204
C66A A87U	0.994
U65G C85G	0.692
U65G C85U	0.831
C64A G68A	0.537
C62G C66A	0.323
C66A A78C	0.142
C64G A77C	0.431
C61G G80U	0.275

Variant	self-cleavage
C61G G80C	0.348
C64A G81A	0.386
C62A C63A	1.03
U65C A83C	0.867
C66G C84A	0.923
U65A C84U	0.799
C62A C85G	0.88
C61U A78U	0.326
C62U A77C	0.491
C66A G68U	0.616
C66A G67A	0.864
C62U	0.994
C62A	0.979
C62G	0.695
C64U C75G	0.106
U65A G76C	1.11
C66A U79A	0.696
C61G G74A	0.429
C61G G74C	0.225
U65G G82A	0.162
C64G U65A	0.799
U65C U72A	0.665
U65C U72C	0.609
